Target: the molecule itself
Test: crystal structure

B1: His6-DcrBΔ37 (domain or fragment, Salmonella enterica, UniProt Q7CPJ3 38-185, looked up)
chain: ASGQPISLMDGKLSFSLPADMTDQSGKLGTQANNMHVYSDPTGQKAVIVIVGDNTDEALPVLANRLLEQQRSRDPQLQVVTNKSIELKGHTLQQLDSIISAKGQTAYSSIVLGKVDNQLLTIQVTLPADNQQKAQTTAENIINTLVIK
B1: binds.

Reference: publication PMC9976613 (Journal of structural biology, 2018)
